Columns and labels:
[1] = system: Hantavirus (serum containing virus; nuclear protein) (Hantavirus); test: ELONA
[2] = system: Influenza A virus (serum containing virus) (Influenza A virus); test: ELONA

ATCCAGAGTGACGCAGCACACATCGGAGAACAGGCGCACTGTCGGAGGAACCGCAACGTGGACACGGTGGCTTAGT [biotin-aptamer 3]
binding signal (a.u. absorbance) [1]: 0.1 | binding signal (a.u. absorbance) [2]: 0.1

— patent publication US20220243196
